From PMC12700559, “Structural basis for simvastatin-induced skeletal muscle weakness associated with type 1 ryanodine receptor T4709M mutation” (The Journal of Clinical Investigation, 2025)

Target: type 1 ryanodine receptor (RyR1), endogenous channel from mouse skeletal muscle (mouse (endogenous in mouse skeletal muscle)) (UniProt E9PZQ0)
Assay: cryo-EM structure; endogenous RyR1 purified from mouse skeletal muscle, ~15 uM protomer, in CHAPS/DOPC buffer; with 5 mM EGTA only or with 10 mM ATP, 5 mM caffeine, 30 uM free Ca2+, with or without 10 mM simvastatin lactone; C4 symmetry imposed

Sequence of type 1 ryanodine receptor (RyR1), endogenous channel from mouse skeletal muscle, E9PZQ0 1-5035 (natural protein) (E9PZQ0 whole entry): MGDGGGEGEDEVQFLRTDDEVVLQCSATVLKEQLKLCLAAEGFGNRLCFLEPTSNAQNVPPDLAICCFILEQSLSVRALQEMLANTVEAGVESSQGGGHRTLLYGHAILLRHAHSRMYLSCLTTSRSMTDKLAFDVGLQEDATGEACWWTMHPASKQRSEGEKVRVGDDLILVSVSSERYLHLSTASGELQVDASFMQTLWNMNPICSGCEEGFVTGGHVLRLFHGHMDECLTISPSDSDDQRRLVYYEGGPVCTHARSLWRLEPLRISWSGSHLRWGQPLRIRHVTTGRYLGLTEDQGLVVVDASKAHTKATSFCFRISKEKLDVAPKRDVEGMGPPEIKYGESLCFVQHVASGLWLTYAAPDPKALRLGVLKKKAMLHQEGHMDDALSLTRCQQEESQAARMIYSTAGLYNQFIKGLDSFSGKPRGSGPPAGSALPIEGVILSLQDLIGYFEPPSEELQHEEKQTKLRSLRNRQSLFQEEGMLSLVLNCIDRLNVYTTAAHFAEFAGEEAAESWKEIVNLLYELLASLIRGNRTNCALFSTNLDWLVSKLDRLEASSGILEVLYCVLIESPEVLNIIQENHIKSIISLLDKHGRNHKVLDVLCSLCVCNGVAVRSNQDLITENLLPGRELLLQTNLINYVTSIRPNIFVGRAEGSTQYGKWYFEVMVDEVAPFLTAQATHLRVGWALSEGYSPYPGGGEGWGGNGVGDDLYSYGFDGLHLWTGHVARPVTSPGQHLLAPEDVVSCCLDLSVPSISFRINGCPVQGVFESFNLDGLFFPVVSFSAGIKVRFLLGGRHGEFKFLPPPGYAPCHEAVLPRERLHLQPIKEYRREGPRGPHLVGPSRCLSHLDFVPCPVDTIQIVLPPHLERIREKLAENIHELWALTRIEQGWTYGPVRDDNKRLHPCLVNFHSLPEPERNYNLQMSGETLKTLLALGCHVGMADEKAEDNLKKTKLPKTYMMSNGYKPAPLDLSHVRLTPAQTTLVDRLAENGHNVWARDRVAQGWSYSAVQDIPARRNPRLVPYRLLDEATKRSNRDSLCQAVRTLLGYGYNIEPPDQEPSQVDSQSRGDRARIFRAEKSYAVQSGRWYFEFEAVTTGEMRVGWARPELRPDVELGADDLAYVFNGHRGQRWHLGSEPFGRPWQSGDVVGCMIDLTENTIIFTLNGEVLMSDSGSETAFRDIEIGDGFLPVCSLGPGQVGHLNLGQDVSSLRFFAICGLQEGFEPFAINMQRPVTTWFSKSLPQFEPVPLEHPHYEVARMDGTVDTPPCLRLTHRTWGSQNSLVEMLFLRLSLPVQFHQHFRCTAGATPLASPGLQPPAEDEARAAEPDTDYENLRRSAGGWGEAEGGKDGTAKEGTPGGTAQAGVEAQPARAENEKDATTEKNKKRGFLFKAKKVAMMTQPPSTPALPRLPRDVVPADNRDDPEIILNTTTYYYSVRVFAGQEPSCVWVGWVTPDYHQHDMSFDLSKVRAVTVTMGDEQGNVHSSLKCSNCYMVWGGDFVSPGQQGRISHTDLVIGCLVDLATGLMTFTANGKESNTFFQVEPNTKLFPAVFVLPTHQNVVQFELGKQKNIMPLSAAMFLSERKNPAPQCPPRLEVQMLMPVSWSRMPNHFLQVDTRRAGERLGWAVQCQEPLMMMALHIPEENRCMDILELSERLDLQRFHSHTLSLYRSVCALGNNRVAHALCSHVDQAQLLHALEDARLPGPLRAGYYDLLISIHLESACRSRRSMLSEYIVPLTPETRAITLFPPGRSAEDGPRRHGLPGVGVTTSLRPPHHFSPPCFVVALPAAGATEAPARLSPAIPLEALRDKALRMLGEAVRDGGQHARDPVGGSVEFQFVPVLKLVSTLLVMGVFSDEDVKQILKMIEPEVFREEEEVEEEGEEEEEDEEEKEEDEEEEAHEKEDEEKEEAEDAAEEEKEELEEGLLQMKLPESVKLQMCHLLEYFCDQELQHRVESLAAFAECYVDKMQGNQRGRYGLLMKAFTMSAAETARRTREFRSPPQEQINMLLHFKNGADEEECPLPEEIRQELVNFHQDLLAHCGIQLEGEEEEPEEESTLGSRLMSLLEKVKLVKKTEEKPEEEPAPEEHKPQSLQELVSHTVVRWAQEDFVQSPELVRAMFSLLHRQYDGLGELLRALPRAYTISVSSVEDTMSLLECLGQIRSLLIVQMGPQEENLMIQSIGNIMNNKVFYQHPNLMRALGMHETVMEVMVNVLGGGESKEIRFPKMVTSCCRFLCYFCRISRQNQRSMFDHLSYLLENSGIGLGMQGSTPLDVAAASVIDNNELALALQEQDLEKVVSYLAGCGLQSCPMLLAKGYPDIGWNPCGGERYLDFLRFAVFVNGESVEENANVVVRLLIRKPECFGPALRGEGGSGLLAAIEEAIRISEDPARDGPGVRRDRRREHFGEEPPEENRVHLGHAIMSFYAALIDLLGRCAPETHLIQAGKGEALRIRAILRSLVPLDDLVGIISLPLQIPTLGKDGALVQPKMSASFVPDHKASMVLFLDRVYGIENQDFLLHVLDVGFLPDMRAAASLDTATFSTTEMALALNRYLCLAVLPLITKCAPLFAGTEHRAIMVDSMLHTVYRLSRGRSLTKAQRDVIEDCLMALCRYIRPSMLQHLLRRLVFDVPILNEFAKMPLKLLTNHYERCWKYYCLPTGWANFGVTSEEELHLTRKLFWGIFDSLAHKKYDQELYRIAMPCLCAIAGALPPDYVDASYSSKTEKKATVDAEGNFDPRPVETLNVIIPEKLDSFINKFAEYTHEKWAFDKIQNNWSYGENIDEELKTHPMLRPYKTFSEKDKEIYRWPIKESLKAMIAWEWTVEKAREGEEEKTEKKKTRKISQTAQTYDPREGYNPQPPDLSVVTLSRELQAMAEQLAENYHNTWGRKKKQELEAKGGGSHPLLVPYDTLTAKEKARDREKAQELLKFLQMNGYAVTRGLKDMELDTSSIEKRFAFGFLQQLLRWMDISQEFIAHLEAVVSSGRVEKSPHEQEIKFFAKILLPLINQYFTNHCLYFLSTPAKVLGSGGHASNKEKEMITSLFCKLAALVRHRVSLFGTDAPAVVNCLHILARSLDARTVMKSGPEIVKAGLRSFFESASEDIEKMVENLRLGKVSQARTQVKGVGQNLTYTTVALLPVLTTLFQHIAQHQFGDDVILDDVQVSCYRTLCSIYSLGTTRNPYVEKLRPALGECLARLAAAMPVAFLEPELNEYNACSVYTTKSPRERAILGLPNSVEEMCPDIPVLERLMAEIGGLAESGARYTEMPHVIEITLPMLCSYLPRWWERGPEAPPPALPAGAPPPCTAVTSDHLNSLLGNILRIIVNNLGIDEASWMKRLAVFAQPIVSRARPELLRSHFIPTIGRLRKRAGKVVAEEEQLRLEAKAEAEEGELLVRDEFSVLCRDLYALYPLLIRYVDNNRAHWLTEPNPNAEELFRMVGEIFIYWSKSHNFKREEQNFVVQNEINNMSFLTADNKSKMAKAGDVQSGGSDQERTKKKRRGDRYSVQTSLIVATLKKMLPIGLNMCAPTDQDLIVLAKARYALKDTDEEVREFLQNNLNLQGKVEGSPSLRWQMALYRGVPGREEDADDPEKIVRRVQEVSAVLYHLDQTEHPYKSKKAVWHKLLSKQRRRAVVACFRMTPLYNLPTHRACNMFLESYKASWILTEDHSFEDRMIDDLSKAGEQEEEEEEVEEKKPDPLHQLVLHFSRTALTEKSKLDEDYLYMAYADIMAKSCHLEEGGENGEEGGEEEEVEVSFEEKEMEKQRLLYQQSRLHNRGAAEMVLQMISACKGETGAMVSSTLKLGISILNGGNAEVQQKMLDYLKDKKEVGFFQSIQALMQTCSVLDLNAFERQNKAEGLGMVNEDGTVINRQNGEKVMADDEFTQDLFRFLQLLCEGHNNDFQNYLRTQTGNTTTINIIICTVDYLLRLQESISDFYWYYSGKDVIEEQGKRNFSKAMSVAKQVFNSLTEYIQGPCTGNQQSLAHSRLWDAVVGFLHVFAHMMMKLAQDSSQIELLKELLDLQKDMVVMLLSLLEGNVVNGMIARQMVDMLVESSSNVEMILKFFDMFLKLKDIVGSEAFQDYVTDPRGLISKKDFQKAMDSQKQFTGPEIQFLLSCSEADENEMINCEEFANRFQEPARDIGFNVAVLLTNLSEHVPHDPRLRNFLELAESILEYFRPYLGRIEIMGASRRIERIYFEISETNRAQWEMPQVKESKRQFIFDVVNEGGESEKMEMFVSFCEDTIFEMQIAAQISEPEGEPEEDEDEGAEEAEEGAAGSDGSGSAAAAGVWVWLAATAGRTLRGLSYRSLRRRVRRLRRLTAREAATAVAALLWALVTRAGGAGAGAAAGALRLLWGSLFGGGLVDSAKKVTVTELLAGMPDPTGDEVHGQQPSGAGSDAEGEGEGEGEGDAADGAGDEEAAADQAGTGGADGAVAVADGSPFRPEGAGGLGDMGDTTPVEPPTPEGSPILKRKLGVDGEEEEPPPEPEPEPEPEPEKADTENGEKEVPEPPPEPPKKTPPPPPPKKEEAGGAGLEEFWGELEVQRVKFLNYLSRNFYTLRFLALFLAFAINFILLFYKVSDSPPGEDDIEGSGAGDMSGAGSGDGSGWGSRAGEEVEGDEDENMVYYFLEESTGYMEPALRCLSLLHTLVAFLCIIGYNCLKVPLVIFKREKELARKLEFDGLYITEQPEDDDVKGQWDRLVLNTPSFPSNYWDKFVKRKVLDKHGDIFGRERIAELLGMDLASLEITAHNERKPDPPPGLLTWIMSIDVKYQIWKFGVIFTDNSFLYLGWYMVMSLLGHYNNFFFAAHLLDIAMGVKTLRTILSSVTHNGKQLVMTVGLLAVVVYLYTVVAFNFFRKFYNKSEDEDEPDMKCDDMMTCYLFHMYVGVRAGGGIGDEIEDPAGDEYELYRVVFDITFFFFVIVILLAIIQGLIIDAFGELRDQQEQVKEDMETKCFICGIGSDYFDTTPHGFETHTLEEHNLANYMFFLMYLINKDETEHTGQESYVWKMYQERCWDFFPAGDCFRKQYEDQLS

stoichiometry N: 4
Substance: type 1 ryanodine receptor (RyR1), endogenous channel from mouse skeletal muscle, E9PZQ0 1-5035 (natural protein)
